The values below come from paper PMC10244946.

Test [1] addresses HER2 on HER2-expressing BT474 and SKOV-3 cells (human (endogenous in BT474 and SKOV-3)) (UniProt P04626). Briefly: radioligand binding.
In test [2] the target is HER2 (antigen of the Lindmo immunoreactive fraction assay; form not told). Briefly: Lindmo assay.
The target of test [3] is HER2 on HER2-expressing BT474 and SKOV-3 cells (human (endogenous in BT474 and SKOV-3)) (UniProt P04626). Briefly: radioligand binding. The source holds these as a separate data set.

Like-named read-outs stand apart in the source and are kept apart here.

One may read the Kd as a measure of binding affinity in units of concentration.

Regarding [^125I]MEGMIB-5F7GGC (VHH), the percent associated with cells after 1 h at 4 °C in test [1] stood at 5.8%.
In turn, [^177Lu]Lu-DOTA-PODS-5F7GGC (VHH) showed an immunoreactive fraction in test [2] of 71.2%.
Consider [^211At]MEAGMB-5F7GGC (VHH), for which the Kd in test [1] is 3.4 nM. Also, the immunoreactive fraction in test [2] turned out to be 69%.
Consider iso-[^131I]GMIB-PODS-5F7GGC (VHH), for which, in test [1], the Kd was 5.9 nM and the percent of input activity bound to cells after 1 h at 4 °C was found to be 7.4%. Besides, the Kd in test [3] turned out to be 3.3 nM. Besides, the immunoreactive fraction in test [2] is 84%.
As to iso-[^211At]AGMB-PODS-5F7GGC (VHH), in test [1], the percent of input activity bound to cells after 1 h at 4 °C stood at 7.5%. Also, the immunoreactive fraction in test [2] stood at 85.8%.
